According to the Human Domainome abundance scans (Beltran et al. 2025):

B1: POU domain, class 6, transcription factor 2, residues 609 to 663; numbered along this chain, P78424 (parent)
chain: KRRTSFTPQALEILNAHFEKNTHPSGQEMTEIAEKLNYDREVVRVWFCNKRQALK

Variants of: B1
Test: abundance fitness (aPCA) (normalised: wild type 0, dead -1); higher = more abundant; growth selection in yeast, the domain comes from the species named
Settings: Homo sapiens

Abundance fitness, by site and new letter:
E31: K -0.31 | L -0.288 | M 0.061 | N -0.258 | P -0.516 | R -0.028 | T -0.112 | V -0.174 | W -0.131 | Y -0.499
I32: A -0.679 | D -1.16 | F -0.649 | G -0.705 | L -0.154 | M -0.246 | N -0.838 | R -0.958 | S -1.07 | V -0.27 | W -0.742 | Y 0.031
A33: C -0.199 | D -0.669 | G -0.248 | H -0.881 | M -0.477 | Q -0.412 | R -0.809 | S -0.118 | V -0.259 | W -1.01
E34: C 0.127 | D -0.428 | G -0.347 | L -0.024 | M -0.285 | N -0.531 | Q -0.194 | R -0.237 | S -0.047 | T -0.012 | V -0.194
K35: C -0.186 | D -0.139 | E -0.154 | F -0.194 | G -0.087 | H -0.221 | I -0.167 | L -0.01 | M -0.062 | N -0.255 | P -0.883 | Q -0.095 | R -0.053 | S -0.047 | T 0.071 | V -0.112 | Y -0.088
L36: A -0.094 | C -0.073 | G -0.823 | M -0.175 | R -0.967 | S -0.6 | V -0.003 | W -0.642
N37: A -0.035 | C -0.252 | D -0.042 | E -0.075 | F -0.353 | G 0.081 | I -0.326 | K -0.036 | L -0.241 | P -0.229 | Q -0.06 | R -0.063 | S -0.046 | T -0.263 | V -0.456 | W -0.444 | Y 0.127
Y38: A 0.02 | C 0.023 | D -0.152 | F -0.145 | G -0.2 | H -0.176 | I 0.027 | K -0.133 | L 0.006 | M 0.022 | N -0.405 | P -1.08 | Q 0.024 | R -0.024 | S 0.034 | T 0.072 | W -0.071
D39: C -0.093 | E -0.208 | F -0.635 | G -0.146 | H -0.113 | I -0.597 | K -0.257 | M -0.483 | N -0.138 | P 0.037 | Q -0.152 | R -0.131 | S -0.052 | T -0.002 | V -0.418 | W -0.54 | Y -0.425
R40: A 0.024 | C -0.064 | D 0.186 | E 0.017 | F 0.041 | G 0.069 | I -0.029 | K 0.001 | L 0.061 | P -0.003 | Q -0.12 | S -0.034 | T -0.011 | V -0.013 | W -0.014 | Y -0.087
E41: A -0.218 | C -0.119 | D -0.104 | F -0.743 | G -0.186 | H -0.29 | I -0.504 | K 0.021 | L -0.617 | M -0.42 | N -0.185 | P -0.879 | Q -0.216 | R -0.107 | S -0.153 | T -0.082 | V -0.496 | W -0.319 | Y -0.321
V42: D -0.012 | E 0.004 | G -0.056 | I -0.117 | K 0.066 | L 0.061 | M 0.034 | N -0.064 | P 0.019 | Q -0.124 | R -0.176 | S 0.029 | T 0.002 | W -0.151 | Y -0.099
V43: A -0.614 | C -0.24 | D -0.764 | E -0.762 | F -0.665 | G -0.943 | H -1.04 | I -0.218 | K -1.17 | L -0.201 | M -0.931 | P -0.938 | Q -1.04 | R -0.935 | S -0.958 | T -0.579 | W -0.979 | Y -0.908
R44: A -0.017 | C -0.076 | D -0.179 | E 0.027 | F -0.117 | H -0.199 | I -0.152 | K -0.195 | L -0.21 | M -0.075 | N -0.195 | P -0.421 | S -0.094 | T 0.018 | V 0.034 | W 0.037 | Y 0.062
V45: A -0.029 | D 0.094 | E -0.194 | F -0.243 | G 0.03 | H -0.141 | I -0.068 | K -0.149 | L 0.02 | M 0.07 | P -0.706 | Q -0.296 | R 0.018 | W -0.055 | Y -0.653
W46: C -0.997 | D -0.447 | E -0.91 | F -0.405 | G -0.707 | H -0.53 | I -0.828 | K -0.983 | N -0.891 | P -0.801 | Q -0.827 | R -0.753 | V -1.02 | Y 0.032
F47: A -0.744 | C -0.843 | D -0.762 | E -0.89 | G -0.853 | H -0.913 | I -0.782 | K -0.722 | L -0.782 | M -0.686 | N -1.08 | P -0.775 | Q -0.807 | R -0.949 | S -0.81 | T -0.763 | W -0.168 | Y -0.162
C48: D -0.144 | E 0.259 | F -0.5 | G -0.008 | I -0.475 | M 0.18 | N 0.277 | Q 0.279 | R -0.057 | S 0.039 | T -0.197 | V 0.124 | W 0.02 | Y -0.062
N49: A -0.038 | D -0.152 | E 0.177 | F -0.292 | G -0.13 | H -0.18 | I -0.226 | K 0.008 | L -0.292 | M -0.177 | P -0.683 | Q 0.03 | R -0.157 | S -0.061 | V -0.138 | W -0.339 | Y -0.218
K50: A -0.125 | C -0.662 | D -0.946 | E -0.156 | F -1.15 | G -0.491 | H -0.444 | I -0.916 | L -0.834 | M -0.184 | N -0.222 | P -1.19 | R 0.022 | S -0.21 | T -0.201 | V -0.638 | W -0.836 | Y -1.01
R51: A -0.094 | C -0.316 | D -0.457 | E -0.337 | F -0.331 | H -0.385 | I -0.226 | K -0.026 | L 0.011 | M -0.377 | N -0.074 | P -0.636 | Q -0.031 | S -0.174 | T -0.243 | V -0.165 | W -0.295 | Y -0.097
Q52: A -0.006 | C -0.126 | D -0.119 | E 0.117 | F -0.171 | G -0.223 | H 0.022 | I 0.045 | K 0.018 | L -0.005 | M -0.188 | N 0.014 | P -0.218 | S -0.175 | T -0.059 | V -0.161
